Test results taken from the Immune Epitope Database (IEDB).

What was measured:
Assay in all cases: IEDB peptide-MHC binding, purified MHC/competitive/radioactivity; filed as Kd, often an IC50 or EC50 that approximates it; ≥ and ≤ were set here for values at or beyond the usual limits of such assays
HLA-A*03:01 = target: HLA-A*03:01
HLA-A*11:01 = target: HLA-A*11:01
HLA-A*31:01 = target: HLA-A*31:01
HLA-A*33:01 = target: HLA-A*33:01
HLA-A*68:01 = target: HLA-A*68:01
[1] = source organism: Lassa virus Josiah
[2] = source organism: Vaccinia virus Copenhagen
[3] = source organism: Vaccinia virus WR
[4] = source organism: Mammarenavirus whitewaterense
[5] = source organism: SARS coronavirus Tor2
[6] = source organism: Mammarenavirus brazilense
[7] = source organism: Dengue virus 1 Brazil/97-11/1997
[8] = source organism: Dengue virus 3 Martinique/1243/1999
[9] = source organism: Dengue virus 2 Jamaica/1409/1983
[10] = source organism: Mammarenavirus guanaritoense
[11] = source organism: Dengue virus 3 Sri Lanka/1266/2000
[12] = source organism: Dengue virus 4 Philippines/H241/1956
[13] = source organism: Dengue virus 1 Singapore/S275/1990
[14] = source organism: Dengue virus 2 Peru/IQT2913/1996

Sequence: LSCTKNNSHH
- Kd (HLA-A*03:01; [1]): ≥ 70000 nM
- Kd (HLA-A*11:01; [1]): ≥ 63800 nM
- Kd (HLA-A*31:01; [1]): ≥ 70000 nM
- Kd (HLA-A*33:01; [1]): ≥ 70000 nM
- Kd (HLA-A*68:01; [1]): ≥ 37400 nM

Sequence: CQLMYALEPR
- Kd (HLA-A*03:01; [2]): 58 nM
- Kd (HLA-A*11:01; [2]): 39.2 nM
- Kd (HLA-A*31:01; [2]): 1050 nM
- Kd (HLA-A*33:01; [2]): 14.4 nM
- Kd (HLA-A*68:01; [2]): 7.65 nM

Sequence: CLLAISAVY
- Kd (HLA-A*03:01; [3]): 987 nM
- Kd (HLA-A*11:01; [3]): 5040 nM
- Kd (HLA-A*31:01; [3]): 368 nM
- Kd (HLA-A*33:01; [3]): 8530 nM
- Kd (HLA-A*68:01; [3]): 160 nM

Sequence: IVPEFAKQY
- Kd (HLA-A*03:01; [3]): ≥ 28200 nM
- Kd (HLA-A*11:01; [3]): 11800 nM
- Kd (HLA-A*31:01; [3]): ≥ 21300 nM
- Kd (HLA-A*33:01; [3]): ≥ 42900 nM
- Kd (HLA-A*68:01; [3]): 9120 nM

Sequence: IVTVTTKDY
- Kd (HLA-A*03:01; [3]): 1930 nM
- Kd (HLA-A*11:01; [3]): ≥ 32600 nM
- Kd (HLA-A*31:01; [3]): 8980 nM
- Kd (HLA-A*33:01; [3]): 18400 nM
- Kd (HLA-A*68:01; [3]): 1690 nM

Sequence: LFYVSSIFLH
- Kd (HLA-A*03:01; [4]): 6040 nM
- Kd (HLA-A*11:01; [4]): 2240 nM
- Kd (HLA-A*31:01; [4]): 319 nM
- Kd (HLA-A*33:01; [4]): 73.7 nM
- Kd (HLA-A*68:01; [4]): 980 nM

Sequence: SICSTMTNR
- Kd (HLA-A*03:01; [5]): 864 nM
- Kd (HLA-A*11:01; [5]): 13 nM
- Kd (HLA-A*31:01; [5]): 1.08 nM
- Kd (HLA-A*33:01; [5]): 42 nM
- Kd (HLA-A*68:01; [5]): 46.4 nM

Sequence: LLRALRLTK
- Kd (HLA-A*03:01; [5]): 24.4 nM
- Kd (HLA-A*11:01; [5]): 3860 nM
- Kd (HLA-A*31:01; [5]): 851 nM
- Kd (HLA-A*33:01; [5]): ≥ 23900 nM
- Kd (HLA-A*68:01; [5]): ≥ 59900 nM

Sequence: ITPTIEDDK
- Kd (HLA-A*03:01; [3]): ≥ 78000 nM
- Kd (HLA-A*11:01; [3]): 6560 nM
- Kd (HLA-A*31:01; [3]): ≥ 77900 nM
- Kd (HLA-A*33:01; [3]): ≥ 77700 nM
- Kd (HLA-A*68:01; [3]): 528 nM

Sequence: RALKYDFNH
- Kd (HLA-A*03:01; [6]): 5700 nM
- Kd (HLA-A*11:01; [6]): 4370 nM
- Kd (HLA-A*31:01; [6]): 65.2 nM
- Kd (HLA-A*33:01; [6]): 7170 nM
- Kd (HLA-A*68:01; [6]): 6970 nM

Sequence: NITLKIIETY
- Kd (HLA-A*03:01; [3]): ≥ 70100 nM
- Kd (HLA-A*11:01; [3]): 414 nM
- Kd (HLA-A*31:01; [3]): 1210 nM
- Kd (HLA-A*33:01; [3]): ≥ 20700 nM
- Kd (HLA-A*68:01; [3]): 444 nM

Sequence: FISDNKKEY
- Kd (HLA-A*03:01; [3]): ≥ 78000 nM
- Kd (HLA-A*11:01; [3]): ≥ 77900 nM
- Kd (HLA-A*31:01; [3]): ≥ 77900 nM
- Kd (HLA-A*33:01; [3]): ≥ 77700 nM
- Kd (HLA-A*68:01; [3]): 7070 nM

Sequence: EVHTWTEQYK
- Kd (HLA-A*68:01; [7]): 15.2 nM

Sequence: QTQTYNIGK
- Kd (HLA-A*03:01; [3]): 143 nM
- Kd (HLA-A*11:01; [3]): 7.03 nM
- Kd (HLA-A*31:01; [3]): 316 nM
- Kd (HLA-A*33:01; [3]): 2620 nM
- Kd (HLA-A*68:01; [3]): 8.83 nM

Sequence: GVAPGTAVLR
- Kd (HLA-A*03:01; [5]): 1320 nM
- Kd (HLA-A*11:01; [5]): 165 nM
- Kd (HLA-A*31:01; [5]): 2850 nM
- Kd (HLA-A*33:01; [5]): ≥ 41900 nM
- Kd (HLA-A*68:01; [5]): 43.2 nM

Sequence: KSGAIKVLK
- Kd (HLA-A*03:01; [8]): 104 nM
- Kd (HLA-A*11:01; [8]): 150 nM
- Kd (HLA-A*31:01; [8]): 8.84 nM

Sequence: GLLLRKLTSK
- Kd (HLA-A*03:01; [9]): 39.6 nM

Sequence: ILAEYIRHR
- Kd (HLA-A*03:01; [3]): 77.5 nM
- Kd (HLA-A*11:01; [3]): 1450 nM
- Kd (HLA-A*31:01; [3]): 13.6 nM
- Kd (HLA-A*33:01; [3]): 48.4 nM
- Kd (HLA-A*68:01; [3]): 15 nM

Sequence: DWLEKHGAER
- Kd (HLA-A*33:01; [7]): 127 nM

Sequence: VSTVQQLTK
- Kd (HLA-A*11:01; [9]): 604 nM

Sequence: TNFESFTVK
- Kd (HLA-A*03:01; [10]): 365 nM
- Kd (HLA-A*11:01; [10]): 1440 nM
- Kd (HLA-A*31:01; [10]): 270 nM
- Kd (HLA-A*33:01; [10]): ≥ 77700 nM
- Kd (HLA-A*68:01; [10]): 24.3 nM

Sequence: KVAGFAKFLK
- Kd (HLA-A*03:01; [5]): 8.52 nM
- Kd (HLA-A*11:01; [5]): 10.8 nM
- Kd (HLA-A*31:01; [5]): 31.8 nM
- Kd (HLA-A*33:01; [5]): 3180 nM
- Kd (HLA-A*68:01; [5]): 11.8 nM

Sequence: IIVLFQRFLR
- Kd (HLA-A*03:01; [3]): 941 nM
- Kd (HLA-A*11:01; [3]): 44.3 nM
- Kd (HLA-A*31:01; [3]): 1.33 nM
- Kd (HLA-A*33:01; [3]): 13.1 nM
- Kd (HLA-A*68:01; [3]): 3.05 nM

Sequence: AIEKDRLDK
- Kd (HLA-A*03:01; [3]): ≥ 78000 nM
- Kd (HLA-A*11:01; [3]): 1120 nM
- Kd (HLA-A*31:01; [3]): ≥ 77900 nM
- Kd (HLA-A*33:01; [3]): ≥ 77700 nM
- Kd (HLA-A*68:01; [3]): ≥ 77700 nM

Sequence: DLIKKSDAK
- Kd (HLA-A*03:01; [3]): ≥ 38000 nM
- Kd (HLA-A*11:01; [3]): ≥ 31300 nM
- Kd (HLA-A*31:01; [3]): ≥ 77900 nM
- Kd (HLA-A*33:01; [3]): 6630 nM
- Kd (HLA-A*68:01; [3]): 2160 nM

Sequence: RTLGRNKRPR
- Kd (HLA-A*31:01; [11]): 6.81 nM

Sequence: STTDAEACY
- Kd (HLA-A*03:01; [3]): ≥ 47800 nM
- Kd (HLA-A*11:01; [3]): 432 nM
- Kd (HLA-A*31:01; [3]): ≥ 75400 nM
- Kd (HLA-A*33:01; [3]): 17400 nM
- Kd (HLA-A*68:01; [3]): 163 nM

Sequence: VADLSARNK
- Kd (HLA-A*03:01; [3]): 214 nM
- Kd (HLA-A*11:01; [3]): 153 nM
- Kd (HLA-A*31:01; [3]): 3030 nM
- Kd (HLA-A*33:01; [3]): 11700 nM
- Kd (HLA-A*68:01; [3]): 1120 nM

Sequence: VYTQLCDHR
- Kd (HLA-A*33:01; [8]): 1900 nM

Sequence: KQIRSAAKK
- Kd (HLA-A*03:01; [5]): 43.1 nM
- Kd (HLA-A*11:01; [5]): 73.7 nM
- Kd (HLA-A*31:01; [5]): 1080 nM
- Kd (HLA-A*33:01; [5]): ≥ 77700 nM
- Kd (HLA-A*68:01; [5]): 1330 nM

Sequence: ETKGVERLK
- Kd (HLA-A*68:01; [8]): 33.3 nM

Sequence: QTVGPWHLGK
- Kd (HLA-A*11:01; [12]): 37.8 nM

Sequence: DIFVSLVKK
- Kd (HLA-A*03:01; [3]): 9920 nM
- Kd (HLA-A*11:01; [3]): 27.8 nM
- Kd (HLA-A*31:01; [3]): ≥ 77900 nM
- Kd (HLA-A*33:01; [3]): 54 nM
- Kd (HLA-A*68:01; [3]): 0.538 nM

Sequence: LAMGIMILK
- Kd (HLA-A*03:01; [13]): 26.3 nM
- Kd (HLA-A*11:01; [13]): 9.52 nM
- Kd (HLA-A*68:01; [13]): 30.6 nM

Sequence: AVEDEEFWK
- Kd (HLA-A*11:01; [11]): 939 nM

Sequence: KISVQYNLSH
- Kd (HLA-A*11:01; [1]): 203 nM

Sequence: KTVWFVPSIK
- Kd (HLA-A*03:01; [9]): 6.64 nM
- Kd (HLA-A*11:01; [9]): 59.2 nM

Sequence: DVIGERIKR
- Kd (HLA-A*33:01; [8]): 38.7 nM
- Kd (HLA-A*68:01; [8]): 24.7 nM

Sequence: KGLGHDFLR
- Kd (HLA-A*31:01; [10]): 0.134 nM
- Kd (HLA-A*33:01; [10]): ≥ 77700 nM
- Kd (HLA-A*68:01; [10]): ≥ 21600 nM

Sequence: ALALGMMVLK
- Kd (HLA-A*03:01; [9]): 24 nM
- Kd (HLA-A*11:01; [9]): 13.7 nM

Sequence: MSYSMCTGK
- Kd (HLA-A*03:01; [9]): 4.21 nM
- Kd (HLA-A*11:01; [9]): 34.2 nM
- Kd (HLA-A*68:01; [9]): 81.8 nM

Sequence: MGANFRADR
- Kd (HLA-A*68:01; [7]): 17 nM

Sequence: MALFLEEMLR
- Kd (HLA-A*31:01; [9]): 19.6 nM
- Kd (HLA-A*33:01; [9]): 27.2 nM
- Kd (HLA-A*68:01; [9]): 11.8 nM

Sequence: SMLNIMNRR
- Kd (HLA-A*31:01; [7]): 1.54 nM
- Kd (HLA-A*33:01; [7]): 68.3 nM

Sequence: SMFEPEREK
- Kd (HLA-A*03:01; [9]): 83.6 nM
- Kd (HLA-A*11:01; [9]): 1140 nM

Sequence: SLLGSALLK
- Kd (HLA-A*03:01; [12]): 3.47 nM
- Kd (HLA-A*11:01; [12]): 21.3 nM

Sequence: RMLINRFTMR
- Kd (HLA-A*03:01; [14]): 86.6 nM
- Kd (HLA-A*31:01; [14]): 14.3 nM
- Kd (HLA-A*33:01; [14]): 162 nM

Sequence: RVSTGSQLAK
- Kd (HLA-A*03:01; [7]): 75.5 nM
- Kd (HLA-A*11:01; [7]): 75.7 nM
